The source of these data is patent US20080268549A1, “THIOFLAVIN T METHOD FOR DETECTION OF AMYLOID POLYPEPTIDE FIBRIL AGGREGATION” (priority 2007, published 2008).

Entries after “also recorded” stand apart in the source; their conditions may differ.

The target of one series is T1, β-amyloid peptide (1-40) (Homo sapiens, UniProt P05067).
T1 construct: β-amyloid peptide (1-40) can be obtained from Biosource; purchased Biosource (Camarillo, Calif.)
Nature of the series: Thioflavin T fluorescence assay of Aβ fibril aggregation. The series is classed as biochemical. As to conditions: FIG. 5. The procedure:
(1) Prepare a stock ThT solution (1 mg/ml; 3.14 mM) in distilled, deionized water, aliquot into small samples and store long term at −20° C. in the dark. Thaw frozen samples only once and discard the remainder. Add 1.6 μl of ThT solution to 1.0 ml of 50 mM Tris buffer, pH 7.4 to yield a final 5.0 μM ThT solution.
(2) β-amyloid peptide (1-40) can be obtained from Biosource (Camarillo, Calif.), CLN from ReGen Therapeutics Plc (London, UK) and Thioflavin T from Sigma (St. Louis, Mo.). Prepare a stock solution of β-amyloid (by dissolving in 10 mM NaOH (0.5 mg/ml) and stored at −70° C. until used. Aβ in base is stable for at least 3 weeks frozen. Add 5.0 μl (2.5 μg) of β-amyloid stock solution to 1.0 ml of ThT/Tris buffer solution. It is preferable to avoid any contact with metal when preparing a amyloid solution since metal can oxidize the peptide.
(3) Measure the fluorescence intensity of 1.0 ml of Aβ/ThT/Tris solution using an excitation wavelength of 440 nm and an emission wavelength of 482 nm. A control solution of Aβ/Tris solution, without ThT can be used as a control. The fluorescence intensity above the control is used as a measure of fibril content.
(4) If the assay is intended to measure the change in Aβ aggregation and used to quantitate the effect of test agents, prepare a second sample containing the drug or agent as in step 2. Preincubate the samples for the appropriate length of time (usually days to weeks) required to yield a change in fluorescence intensity.
Samples of Aβ in base were prepared as described in Example 1. ThT in Tris buffer was then added to the sample together with CLN at a concentration range of 2.5-10 nM and was preincubated for either 1 or 2 days and the fluorescence intensity measured following the above procedure. […] After a 2-day treatment with 10 nM CLN, approximately 50% of the Aβ fibrils are dissolved.

The target in another series is T2, Aβ (1-40) (Homo sapiens, UniProt P05067).
T2 construct: β-amyloid peptide (1-40) can be obtained from Biosource; purchased Biosource (Camarillo, Calif.)
T2 sequence (P05067 672-711 limits assumed): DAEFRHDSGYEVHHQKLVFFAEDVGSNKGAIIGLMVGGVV
Nature of the series: Circular dichroism spectra of Aβ secondary structure. As for the experimental part:
CD is routinely used to monitor changes in secondary structure (Wang et al., 2005). In order to verify that CLN does indeed cause a shift in secondary structure, a CD spectra of Aβ treated with CLN and control were taken at 24 and 48 h. For these experiments, a 10 μM solution of Aβ (1-40) (first solubilized in base as in previous examples) was prepared in 50 mM Tris buffer, pH 7.4, with and without 50 nM CLN and ThT. Circular dichroism (CD) spectra of the Aβ (1-40) peptide solutions were recorded using a Jasco J-715 CD spectropolarimeter at 25° C. using a bandwidth of 1.0 nm, a sensitivity of 0.5 nm and a recording speed of 50 nm/min. The results were plotted as ellipticity (mdeg) versus wavelength (nm).

T1 sequence (P05067 672-711 limits assumed): as above

Take colostrinin [CLN]: the Aβ fibrils dissolved result in the series with β-amyloid peptide (1-40) (10 nM CLN, 2-day treatment) is “approximately 50%”. The “decrease in Aβ aggregation (ThT fluorescence), maximum” value in the series with β-amyloid peptide (1-40) (10 nM CLN, at 2 days) is 40%. For the same compound, the “effect on Aβ aggregation (ThT fluorescence)” value with β-amyloid peptide (1-40) (CLN 2.5-10 nM, preincubated 1 or 2 days) was “dose-dependent decrease”. Further, on Aβ (1-40) (10 μM Aβ (1-40), 50 nM CLN, 50 mM Tris pH 7.4, 24 and 48 h, FIG. 6A), the “effect on secondary structure (conformation) of Aβ by CD spectra” value was “shift from β-sheet to α-helix; also recorded: shifted to a random-coil/α-helical rich conformation”.
As to `Cc1ccc2c(c1)sc(-c1ccc(N(C)C)cc1)[n+]2C.[Cl-]` [ThT, Thioflavin T], the “effect of ThT on conformation of CLN treated Aβ samples by CD spectra” value on Aβ (1-40) (10 μM Aβ (1-40) with 50 nM CLN and ThT, FIG. 6B) is listed as “did not have an effect”.
